± gives the uncertainty stated by the source.
B1: POU domain, class 3, transcription factor 2, residues 262 to 338; numbered along this chain, P20265 (parent)
chain: EDTPTSDDLEQFAKQFKQRRIKLGFTQADVGLALGTLYGNVFSQTTICRFEALQLSFKNMCKLKPLLNKWLEEADSS

Variants of: B1
Assay: abundance fitness (aPCA) (normalised: wild type 0, dead -1); higher = more abundant; growth selection in yeast, the domain comes from the species named
Conditions: Homo sapiens

Row | Variant | abundance fitness
1 | EDTPTSDDLEQFAKQFKQRRIKLGFTQADVGLALGTLYGNVFSQTTICRFEALQLSFKNMCKLKPLLNKWLVEADSS [E72V] | 0.017 ± 0.035
2 | EDTPTSDDLEQFAKQFKQRRIKLGFTQADVGLALGTLYGNVFSQTTTCRFEALQLSFKNMCKLKPLLNKWLEEADSS [I47T] | -0.636 ± 0.083
3 | EDTPTSDDLEQFAKQFKQRRIKNGFTQADVGLALGTLYGNVFSQTTICRFEALQLSFKNMCKLKPLLNKWLEEADSS [L23N] | -0.254 ± 0.083
4 | EDTPTSDDLEQFAKQFKQRRIKLGFTQADVGLALGTLYGNVTSQTTICRFEALQLSFKNMCKLKPLLNKWLEEADSS [F42T] | -0.061 ± 0.042
5 | GDTPTSDDLEQFAKQFKQRRIKLGFTQADVGLALGTLYGNVFSQTTICRFEALQLSFKNMCKLKPLLNKWLEEADSS [E1G] | -0.031 ± 0.037
6 | EDTPTSDDLEQFAKQFKQRRIKLGFTQADVGLALGTLYGNVFSQTTICRFEALQLSFKNFCKLKPLLNKWLEEADSS [M60F] | -0.373 ± 0.13
7 | EDTPTSDDLEQFAKQFKQRRQKLGFTQADVGLALGTLYGNVFSQTTICRFEALQLSFKNMCKLKPLLNKWLEEADSS [I21Q] | 0.005 ± 0.04
8 | EDTPTSDDLERFAKQFKQRRIKLGFTQADVGLALGTLYGNVFSQTTICRFEALQLSFKNMCKLKPLLNKWLEEADSS [Q11R] | 0.001 ± 0.028
9 | EDTPTSDDLEQFAKQFKQRRIKLGFTQADVGLALGTLYGNVFSQTTICRFEALQLSFKYMCKLKPLLNKWLEEADSS [N59Y] | -0.103 ± 0.068
10 | EDTPTSDDLEQFAKQFKQRRIKLGFTQADVGLALGTLYGNVFSQTTICRFEALQLSFKNMCKLKALLNKWLEEADSS [P65A] | -0.139 ± 0.094
11 | EDTPTSDDLEQFAKQFKQRRKKLGFTQADVGLALGTLYGNVFSQTTICRFEALQLSFKNMCKLKPLLNKWLEEADSS [I21K] | -0.112 ± 0.058
12 | EDTPTSDDLEQCAKQFKQRRIKLGFTQADVGLALGTLYGNVFSQTTICRFEALQLSFKNMCKLKPLLNKWLEEADSS [F12C] | -0.555 ± 0.16
13 | EDTPTSDDLEQFAKQQKQRRIKLGFTQADVGLALGTLYGNVFSQTTICRFEALQLSFKNMCKLKPLLNKWLEEADSS [F16Q] | -0.647 ± 0.088
14 | EDTPTSDDLEQFAKQFKQRRIKLGFTQADVGLALGTLYGNVFSQTVICRFEALQLSFKNMCKLKPLLNKWLEEADSS [T46V] | -0.115 ± 0.031
15 | EDTPTSDDLEQFAKQFKQRRIKLGFTQADVGLALGTLYGNVFSQTTICRFEALQLSFKNMCKLKPNLNKWLEEADSS [L66N] | -0.504 ± 0.1
16 | EDTPTSDDLEQFAKQFKQRRIKLGFTQADTGLALGTLYGNVFSQTTICRFEALQLSFKNMCKLKPLLNKWLEEADSS [V30T] | -0.501 ± 0.083
17 | EDTPTSDDLEQRAKQFKQRRIKLGFTQADVGLALGTLYGNVFSQTTICRFEALQLSFKNMCKLKPLLNKWLEEADSS [F12R] | -0.401 ± 0.11
18 | EDTPTSDDLEQFAKQFKQRRIKLGFTQADVGLALGTLYGNVFSQTTICRFEALQLSFKTMCKLKPLLNKWLEEADSS [N59T] | -0.051 ± 0.043

Row | Variant | abundance fitness
19 | EDTPTSDDLEQFAKQFKQRRIKLGFTQADVGLALGTLYGNVFSQTTIQRFEALQLSFKNMCKLKPLLNKWLEEADSS [C48Q] | 0.134 ± 0.046
20 | EDTPTSDDLEQFAKQFKQRRIKLGFTQADVGLALGTLRGNVFSQTTICRFEALQLSFKNMCKLKPLLNKWLEEADSS [Y38R] | -0.27 ± 0.031
21 | EDTPTSDELEQFAKQFKQRRIKLGFTQADVGLALGTLYGNVFSQTTICRFEALQLSFKNMCKLKPLLNKWLEEADSS [D8E] | 0.079 ± 0.041
22 | PDTPTSDDLEQFAKQFKQRRIKLGFTQADVGLALGTLYGNVFSQTTICRFEALQLSFKNMCKLKPLLNKWLEEADSS [E1P] | 0.085 ± 0.28
23 | EDTPTSDDLEQFAKQFKQRRIKLGFTQADVGLALGTLYGNVFSQTTICRFEWLQLSFKNMCKLKPLLNKWLEEADSS [A52W] | -0.552 ± 0.054
24 | EDTPTSDDLEQFAKQFKQRRIKLGFTQADVGLALGTLYGNVFSQTTICRFEALFLSFKNMCKLKPLLNKWLEEADSS [Q54F] | -0.933 ± 0.37
25 | EDTPTSSDLEQFAKQFKQRRIKLGFTQADVGLALGTLYGNVFSQTTICRFEALQLSFKNMCKLKPLLNKWLEEADSS [D7S] | 0.054 ± 0.45
26 | EDTPTSDYLEQFAKQFKQRRIKLGFTQADVGLALGTLYGNVFSQTTICRFEALQLSFKNMCKLKPLLNKWLEEADSS [D8Y] | -0.41 ± 0.14
27 | EDTPTSDDLEQFAKQFKQRRIKLGFTQADVGLALGTLYGNVFSQTTICRFEALQLSCKNMCKLKPLLNKWLEEADSS [F57C] | -0.516 ± 0.068
28 | EDTPTSDDLSQFAKQFKQRRIKLGFTQADVGLALGTLYGNVFSQTTICRFEALQLSFKNMCKLKPLLNKWLEEADSS [E10S] | -0.028 ± 0.034
29 | EDTPTSDDLEQFAKQFKQRRIKLGFTQADVGLALGTLYGNVFSQTTICRFEALQQSFKNMCKLKPLLNKWLEEADSS [L55Q] | -0.506 ± 0.064
30 | EDTPTSDDLEQFAKQFKQRRIKLGFTQADVGLALGTLYGNVFSQTTICRFEASQLSFKNMCKLKPLLNKWLEEADSS [L53S] | -0.007 ± 0.038
31 | EDTPTSDDLEQFAKQFKQRRIKLGFTQADVGLALGTLYGNVFSQTTICRFEALQLSFKNMCKLKCLLNKWLEEADSS [P65C] | 0.038 ± 0.2
32 | EDTPTSDDLEQFAKQFKQRRIKLGFTQADVGLALGTLYGWVFSQTTICRFEALQLSFKNMCKLKPLLNKWLEEADSS [N40W] | -0.281 ± 0.049
33 | EDTPTSDDLEQFAKQFKQRRIKLGETQADVGLALGTLYGNVFSQTTICRFEALQLSFKNMCKLKPLLNKWLEEADSS [F25E] | -0.773 ± 0.092
34 | EDTPTSDDLEQFAKQFKQRRIKLGFTQADVGLALGTLYGNVFSQTTICRFEALQLSFKNMCKLKPLLNMWLEEADSS [K69M] | 0.112 ± 0.14
35 | EDTPTSDDLEQFAKQFKQRRIKLGFTQADVGLALGTLYGNVFSQTTICRFEALQLSFKNMCALKPLLNKWLEEADSS [K62A] | -0.033 ± 0.032
36 | EDTPLSDDLEQFAKQFKQRRIKLGFTQADVGLALGTLYGNVFSQTTICRFEALQLSFKNMCKLKPLLNKWLEEADSS [T5L] | -0.041 ± 0.034

From the Human Domainome abundance scans (Beltran et al. 2025)
